Reference: paper PMC8360832, “Butyryl/Caproyl-CoA:Acetate CoA-transferase: cloning, expression and characterization of the key enzyme involved in medium-chain fatty acid biosynthesis” (Bioscience Reports, 2021)

Substrate: CCCC(=O)SCCNC(=O)CCNC(=O)[C@H](O)C(C)(C)COP(=O)(O)OP(=O)(O)OC[C@H]1O[C@@H](n2cnc3c(N)ncnc32)[C@H](O)[C@@H]1OP(=O)(O)O
Assay: purified protein
Type: biochemical, Clostridium tyrobutyricum
Conditions: 200 mM sodium acetate, 100 mM potassium phosphate pH 7, 25 °C

B1: BEY8-CoAT (BCoAT) (Clostridium tyrobutyricum DIVETGP) (protein)
chain: MSFEELYKSKVVSADEAVSHIKSGDKIVFGHACAEPQVLLNALVKNKEKYKNVELYHMIPKGETNYAEPGVEKYIHDNSFFTGKGTSEAIQEGRADFIPVFFSEIPRLFKKGYIPVDVALIEVSKPDEHGYCSFGVSNDYIHAGAECAKLVIAEVNENMPRVFGNNFIHVSDIDYIVESSRPVVEMQPSKIGDVEKAIGKYCASLVEDGSTLQLGIGAIPDAVLLFLKDKKDLGIHSEMISDGVVELVKAGVITNKKKTLHPGKIVVTFLMGTKKLYDFIDNNPEVESHPVDYVNNPTVIMKNCKMVCINSCVEIDLMGQICSESIGLKQISGVGGQIDFTRGASMAEDGKSIIAIPSTAAHGKVSRIVPFLNQGAAITTSRNDVHYVITEYGIAQLRGKTLKQRARELIK
notes: full-length, His tag (N-terminal), pET28a, E. coli BL21 (DE3), Ni-NTA; gene 1233 bp, 46 kDa
Work on B1 yielded a Km of 370 ± 4.1 µM, a kcat of 0.232 ± 0.0117 s⁻¹ and a kcat/Km of 628.3 ± 3.33 M⁻¹ s⁻¹.
